Data from patent US20230051715A1 (MABWELL THERAPEUTICS, published 2023).

Experiments:
[1] = target: T1, cynomolgus monkey C1s (produced in house) (cynomolgus monkey, UniProt P09871 16-685 (human entry), limits assumed); experiment: BLI (Octet RED96e), antibody on AHC biosensor; C1s Species: Cyno Monkey; R^2 0.9993
T1 construct: also called CyC1s
T1 chain: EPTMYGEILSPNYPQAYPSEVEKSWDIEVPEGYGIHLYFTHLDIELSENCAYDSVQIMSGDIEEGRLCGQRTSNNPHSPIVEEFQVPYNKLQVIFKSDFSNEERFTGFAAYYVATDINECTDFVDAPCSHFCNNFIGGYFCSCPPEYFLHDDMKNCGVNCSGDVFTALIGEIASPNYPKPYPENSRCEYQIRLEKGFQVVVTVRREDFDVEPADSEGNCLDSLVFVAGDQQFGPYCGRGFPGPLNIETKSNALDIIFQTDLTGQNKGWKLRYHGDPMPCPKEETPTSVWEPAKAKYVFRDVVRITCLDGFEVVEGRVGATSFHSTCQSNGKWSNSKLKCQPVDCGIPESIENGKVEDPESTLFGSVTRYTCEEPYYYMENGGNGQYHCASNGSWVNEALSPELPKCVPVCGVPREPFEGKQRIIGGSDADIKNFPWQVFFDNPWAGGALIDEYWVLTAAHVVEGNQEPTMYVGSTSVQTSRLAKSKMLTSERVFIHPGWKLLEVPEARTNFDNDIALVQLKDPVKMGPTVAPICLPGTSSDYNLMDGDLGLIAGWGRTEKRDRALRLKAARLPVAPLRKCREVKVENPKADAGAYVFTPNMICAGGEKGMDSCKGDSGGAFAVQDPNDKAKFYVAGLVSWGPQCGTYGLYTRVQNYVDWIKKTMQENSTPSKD
Description: At last, analyte was dissociated in 1×KB for 360 sec. Data analysis was done using OCTET® Data Analysis HT Software (Sartorius AG).

[2] = target: T2, human C1s mutant M5 (K336G) (human, UniProt P09871 16-688); experiment: ELISA, plate coated with human C1s mutant M5: K336G, OD450nm; curve still rising at 1000 ng/ml, no upper plateau in the range
T2 construct: The entry is the mutant itself
T2 sequence: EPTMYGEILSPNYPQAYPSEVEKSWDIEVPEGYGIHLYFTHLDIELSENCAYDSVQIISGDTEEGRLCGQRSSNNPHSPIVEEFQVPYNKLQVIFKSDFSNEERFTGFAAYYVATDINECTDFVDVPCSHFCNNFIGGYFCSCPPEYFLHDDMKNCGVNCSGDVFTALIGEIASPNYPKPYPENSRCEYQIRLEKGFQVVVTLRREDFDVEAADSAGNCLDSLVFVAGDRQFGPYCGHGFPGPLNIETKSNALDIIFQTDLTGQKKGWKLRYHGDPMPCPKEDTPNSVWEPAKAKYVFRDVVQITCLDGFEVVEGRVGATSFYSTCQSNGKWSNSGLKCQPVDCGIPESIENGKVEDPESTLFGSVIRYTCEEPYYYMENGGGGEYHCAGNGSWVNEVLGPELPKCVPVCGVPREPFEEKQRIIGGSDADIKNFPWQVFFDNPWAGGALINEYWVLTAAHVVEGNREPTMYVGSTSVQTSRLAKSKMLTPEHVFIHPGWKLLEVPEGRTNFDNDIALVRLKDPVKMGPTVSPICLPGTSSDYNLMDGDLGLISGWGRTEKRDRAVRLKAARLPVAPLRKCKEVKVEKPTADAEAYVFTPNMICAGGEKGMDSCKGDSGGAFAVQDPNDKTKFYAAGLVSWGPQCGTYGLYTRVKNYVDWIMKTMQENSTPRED
Protocol: ELISA was carried out by first coating 96-well plates with 200 ng/well of full-length or truncated C1s proteins overnight. The next morning, plates were blocked with SuperBlock T20 blocking buffer (Thermo Scientific 37536) for 1 h with gentle shaking. Then, various concentrations of anti-C1s antibodies diluted in SuperBlock T20 blocking buffer were added to the plates and incubated for 1 h with gentle shaking. Mouse IgG (Sigma-Aldrich 15381) and human IgG1 (BioXCell BP0297) were used as negative controls. The plates were washed before incubating with HRP conjugated secondary antibodies diluted in SuperBlock T20 blocking buffer (goat anti-mouse IgG (H+L) cross-adsorbed secondary antibody HRP (Invitrogen G-21040) or goat anti-human IgG antibody, HRP conjugate (Millipore AP309P)) for 1 h with gentle shaking. At last, the plates were washed and color developed with ELISA liquid HRP substrate (Sigma-Aldrich), followed by stopping the reaction with addition of 1M H₂SO₄ in the same volume as the ELISA liquid substrate. Bound antibody was measured by absorbance at OD₄₅₀ₙₘ.
Binding of anti-C1s antibodies to mutants M1-M20 of human C1s was measured by ELISA as described in Example 4, and results are shown in FIGS. 6B-6U. […]

- Kd [1]: 3.5 nM
- koff [1]: 0.00081 s⁻¹
- kon [1]: 230000 M⁻¹ s⁻¹
- EC50 [2]: 0.468 µg/mL
B1: Anti-C1s antibody hz2-8 (H1L2 G80A/T82A) (antibody, V domains shown)
VH: QVQLVQSGAEVKKPGASVKVSCKASGFNIKEYYMHWVRQAPEQGLEWMGWIDPENADAIYAQKFQGRVTITADTSTNTAYMELSSLRSEDTAVYYCARSRLFFAYWGQGTLVTVSS
VL: DIQMTQSPKSLSASVGDRVTITCRASQDVRTALDWYQQKPGQSPKLLIYSASYRYSGVPSRFSGSGSGTDFTLTISSLQPEDFATYYCQQQYTTPYTFGQGTKLEIKR
notes: Humanized variant with G80A and T82A in HC CDR2 (already in the entry), human IgG1 / kappa
